Measurements reported in article PMC5993284, “Peptide inhibitors of the anaphase promoting-complex that cause sensitivity to microtubule poison” (PLoS ONE, 2018).

Test system: APC/C - co-factor Cdh1 interaction
Assay: Co-factor Cdh1 binding to APC/C (35S-Cdh1, APC/C on IgG beads)
Parameters: species or system Saccharomyces cerevisiae
Details: 220 μM peptide, 1 hour, n = 3, vs buffer only
Procedure: One potential mechanism by which Cdc20-derived peptides and Tyc1 inhibit APC/C may be by blocking and/or disrupting the association between the co-factors Cdc20 and Cdh1 and the APC/C holo-enzyme. To test this hypothesis we produced radio-labeled full-length Cdc20 and Cdh1 co-factors by IVT/T and then incubated them with 220 μM Tyc1, DQ36 or PQ65 and APC/C that had been isolated from mitotic yeast extracts on IgG beads. Unbound peptide was washed away, and the amount of the remaining APC/C bound Cdc20 or Cdh1 was quantified. […] These observations indicate that Tyc1 and Mad2-binding motif peptides inhibit APC/C via a similar mechanism, leading to the disruption of the co-factor-APC/C interaction. This similar mechanism of action predicts that co-ever expression of Tyc1 and a Mad2-binding motif peptide in vivo would likely increase a cell’s sensitivity to microtubule poison.
Fig 14 Mad2-binding motif peptides and Tyc1 disrupt co-factor binding to APC/C and display an additive phenotype for microtubule poison sensitivity when co-ever expressed. A) ^35S-Methionine radio-labeled full-length Cdc20 or Cdh1 were made by IVT/T and pre-incubated with buffer only as a control, or Tyc1, DQ36 or PQ65 at a final concentration of 220 μM. […] The amount of APC/C-bound co-factor was measured by phosphor-imaging (n = 3). […]

B1: PQ65: 65 amino acid residue peptide called PQ65 (Cdc20 169–232) (peptide, UniProt P26309 169-232, looked up, fragment)
chain: PPNASPISHLRAQTKIVFKQNVAEACGLDMNKRILQYMPEPPKCSSLRQKSYIMKKRTHYSYQQ
amount of APC/C bound co-factor Cdh1 (in words): caused a significant decrease in the amount of APC/C bound co-factor Cdc20 and Cdh1
